The values below come from the RNAGym collection of RNA variant scans (doi:10.7554/elife.90254).

The labels stand for the following.
B1: LINE1-mini (parent)
chain: GGCAGAGCUCAACACAGCGUGGCAAAGUGGCUGUGGCUAGACUGCC

This data set covers variants of B1. As to the kind of experiment: self-cleavage, relative activity (ratio to wild type); higher = more cleavage; in vitro, sequencing; the parent is a self-cleaving ribozyme.
Take G2C G40U: the self-cleavage was 0.13.
For the variant G2C G40C, the self-cleavage was 0.07.
G2C G40A: the self-cleavage was found to be 0.09.
As for G2C C3U, the self-cleavage turned out to be 0.54.
The figure for G2C C3G is 0.07; for G2C C3A it is 0.42.
As to G2C G35U, the self-cleavage turned out to be 0.23.
On to G2C G35A, for which the self-cleavage is 0.06.
For G2C G35C, the self-cleavage stood at 0.05.
G2C C10A: the self-cleavage stood at 0.03.
The same measure for G2C C10U: 0.03; for G2C C10G: 0.03.
As to C3A A16U, the self-cleavage was found to be 0.13.
As for C3A A16G, the self-cleavage was found to be 0.22.
The figure for C3A A16C is 0.12.
For the variant G2C U43C, the self-cleavage was determined as 0.15.
For the variant G2C U43A, the self-cleavage was found to be 0.04.
In the case of G2C U43G, the self-cleavage is 0.04.
In the case of G2C C8U, the self-cleavage is 0.18.
The figure for G2C C8G is 0.08; for G2C C8A it is 0.17; for C3A C23U it is 0.71.
Turning to C3A C23A, the self-cleavage was 0.61.
The same measure for C3A C23G: 0.45; for C3A A25U: 0.79.
As to C3A A25C, the self-cleavage was found to be 0.41.
The figure for C3A A25G is 0.29.
Turning to G2U U20A, the self-cleavage is 0.07.
For G2U U20G, the self-cleavage came out at 0.05.
The same measure for G2U U20C: 0.05.
As for G2C G44U, the self-cleavage came to 0.14.
For G2C G44A, the self-cleavage turned out to be 0.17.
Take G2C G44C: the self-cleavage amounted to 0.18.
Regarding G2C G29A, the self-cleavage is 0.1.
For G2C G29C, the self-cleavage was 0.06.
The figure for G2C G29U is 0.19; for G2C C42U it is 0.07.
Regarding G2C C42G, the self-cleavage worked out at 0.03.
With G2C C42A, the self-cleavage was 0.08.
The same measure for G2C A41G: 0.17; for G2C A41C: 0.12; for G2C A41U: 0.12.
For G2U G40A, the self-cleavage is 0.03.
Take G2U G40C: the self-cleavage was 0.03.
Take G2U G40U: the self-cleavage is 0.04.
The same measure for C3A G27A: 0.31; for C3A G27U: 0.62.
As for C3A G27C, the self-cleavage worked out at 0.24.
On to G2U G44C, for which the self-cleavage amounted to 0.09.
The same measure for G2U G44U: 0.06; for G2U G44A: 0.08; for G2U C8U: 0.1.
Take G2U C8A: the self-cleavage was 0.07.
Regarding G2U C8G, the self-cleavage was found to be 0.04.
As to G2U G5U, the self-cleavage amounted to 0.02.
In the case of G2U G5A, the self-cleavage came out at 0.06.
Consider G2U G5C, for which the self-cleavage is 0.04.
In the case of C3A C46A, the self-cleavage amounted to 0.4.
As for C3A C46U, the self-cleavage was 0.41.
For C3A C46G, the self-cleavage is 0.29.
Take C3A C13A: the self-cleavage came out at 0.25.
For the variant C3A C13U, the self-cleavage was 1.71.
As to C3A C13G, the self-cleavage worked out at 0.54.
Take C3A A14G: the self-cleavage is 0.61.
Take C3A A14C: the self-cleavage worked out at 0.16.
The figure for C3A A14U is 0.27; for G2U C3U it is 0.37.
Turning to G2U C3G, the self-cleavage came out at 0.26.
For the variant G2U C3A, the self-cleavage was 0.48.
With G2C U34G, the self-cleavage amounted to 0.12.
Take G2C U34A: the self-cleavage turned out to be 0.07.
For the variant G2C U34C, the self-cleavage amounted to 0.06.
For the variant G2U U34G, the self-cleavage was determined as 0.03.
Consider G2U U34A, for which the self-cleavage turned out to be 0.04.
For the variant G2U U34C, the self-cleavage came out at 0.04.
As to G2U G33U, the self-cleavage worked out at 0.04.
Consider G2U G33C, for which the self-cleavage came to 0.02.
As to G2U G33A, the self-cleavage is 0.03.
On to G2C C37U, for which the self-cleavage came to 0.06.
G2C C37G: the self-cleavage came out at 0.05.
As to G2C C37A, the self-cleavage is 0.06.
In the case of G2U, the self-cleavage was found to be 0.09.
For the variant C3A C42U, the self-cleavage came out at 0.26.
With C3A C42G, the self-cleavage came to 0.08.
On to C3A C42A, for which the self-cleavage amounted to 0.33.
Turning to G2U U9G, the self-cleavage came to 0.06.
For G2U U9A, the self-cleavage stood at 0.06.
For G2U U9C, the self-cleavage is 0.01.
For C3A C37U, the self-cleavage is 0.33.
In the case of C3A C37A, the self-cleavage came out at 0.35.
For C3A C37G, the self-cleavage came out at 0.28.
Consider G2U C46A, for which the self-cleavage was 0.09.
Turning to G2U C46G, the self-cleavage was found to be 0.1.
As for G2U C46U, the self-cleavage was found to be 0.06.
Turning to C3A C31A, the self-cleavage was 0.16.
The figure for C3A C31G is 0.13; for C3A C31U it is 0.11.
For the variant G2U G27U, the self-cleavage turned out to be 0.06.
The figure for G2U G27C is 0.09.
The figure for G2U G27A is 0.15; for C3A A11G it is 0.06; for C3A A11C it is 0.04.
For C3A A11U, the self-cleavage was found to be 0.06.
On to G2U A4G, for which the self-cleavage was found to be 0.12.
Regarding G2U A4C, the self-cleavage amounted to 0.07.
As to G2U A4U, the self-cleavage is 0.08.
Regarding G2C U28A, the self-cleavage worked out at 0.23.
Turning to G2C U28G, the self-cleavage came to 0.05.
On to G2C U28C, for which the self-cleavage came out at 0.09.
For the variant G2U A12U, the self-cleavage came out at 0.04.
Turning to G2U A12G, the self-cleavage was 0.02.
For G2U A12C, the self-cleavage was 0.02.
For C3A G17C, the self-cleavage is 0.31.
Turning to C3A G17U, the self-cleavage is 0.2.
As to C3A G17A, the self-cleavage was 0.16.
For the variant G2C U38G, the self-cleavage came out at 0.03.
For the variant G2C U38A, the self-cleavage turned out to be 0.06.
As for G2C U38C, the self-cleavage was found to be 0.04.
The same measure for G2C C18A: 0.06; for G2C C18U: 0.09; for G2C C18G: 0.05.
The same measure for G2U C42G: 0.02; for G2U C42U: 0.1; for G2U C42A: 0.06.
Regarding G2C G22A, the self-cleavage was found to be 0.15.
For G2C G22C, the self-cleavage was 0.05.
G2C G22U: the self-cleavage was found to be 0.23.
For the variant C3A G7A, the self-cleavage was 0.97.
C3A G7U: the self-cleavage stood at 0.4.
For the variant C3A G7C, the self-cleavage turned out to be 0.13.
For C3A, the self-cleavage was 0.58.
With G2U G35C, the self-cleavage is 0.05.
As for G2U G35A, the self-cleavage turned out to be 0.05.
The figure for G2U G35U is 0.07; for G2U G36C it is 0.05.
As to G2U G36U, the self-cleavage turned out to be 0.04.
Regarding G2U G36A, the self-cleavage is 0.05.
Regarding G2C G33C, the self-cleavage was determined as 0.02.
For the variant G2C G33U, the self-cleavage was 0.05.
The figure for G2C G33A is 0.04; for G2U A14C it is 0.01; for G2U A14G it is 0.08.
G2U A14U: the self-cleavage is 0.04.
In the case of G2C U9A, the self-cleavage came to 0.16.
Consider G2C U9G, for which the self-cleavage is 0.07.
Turning to G2C U9C, the self-cleavage came to 0.03.
In the case of G2U A11C, the self-cleavage was determined as 0.01.
G2U A11U: the self-cleavage amounted to 0.03.
G2U A11G: the self-cleavage was found to be 0.02.
Turning to G2U C10U, the self-cleavage turned out to be 0.03.
With G2U C10A, the self-cleavage is 0.02.
G2U C10G: the self-cleavage worked out at 0.02.
The figure for G2U C18G is 0.03; for G2U C18U it is 0.05; for G2U C18A it is 0.03.
Regarding C3A G19A, the self-cleavage was determined as 0.61.
Take C3A G19C: the self-cleavage is 0.18.
With C3A G19U, the self-cleavage is 0.24.
As to C3A C18G, the self-cleavage amounted to 0.2.
With C3A C18A, the self-cleavage came to 0.18.
Take C3A C18U: the self-cleavage came out at 0.49.
C3A A39G: the self-cleavage came to 0.57.
On to C3A A39C, for which the self-cleavage was determined as 0.11.
Consider C3A A39U, for which the self-cleavage turned out to be 0.48.
In the case of G2C G30C, the self-cleavage came out at 0.23.
Turning to G2C G30A, the self-cleavage came out at 0.24.
For the variant G2C G30U, the self-cleavage worked out at 0.29.
